Publication PMC7010817

Target: PPARα (UniProt P23204)
Assay: Flag-JMJD3 co-IP, PPARα immunoblot
Conditions: reference: wild type, FGF21-treated; sites T1044

binding against the reference: weaker
Substance: JMJD3 (KDM6B) (from UniProt Q5NCY0) T1044A, FGF21-treated
